According to PMC4854488 (Biochemistry, 2016):

Experiments:
[1] = molecular target: T1, oxalate decarboxylase (OxDC) (Bacillus subtilis, UniProt O34714, DEL162-162); experiment: X-ray crystal structure, […] Å; format: binding; settings: Co(II)-substituted ΔE162 variant; oxalate end-on (monodentate) on Co(II) in N-terminal domain; cocrystallised, well pH 9.5, 17 °C
T1 construct: C-terminal His6 tag kept, expressed in E. coli BL21(DE3), Mn-containing (Co(II)-substituted for the crystal; model residues 6-382)

purified protein = substrate: O=C(O)C(=O)O; experiment: purified protein; settings: 25 °C
[2] = decarboxylase activity, Mn enzyme (1.4 Mn/monomer), 100 mM citrate pH 4.2, 300 uM o-phenylenediamine, pH 4.2
[3] = oxidase activity, Mn enzyme (1.4 Mn/monomer), 50 mM succinate pH 4.0, O2 co-substrate, pH 4.0
[4] = DDNS variant, decarboxylase activity, Mn enzyme (1.5 Mn/monomer), 100 mM citrate pH 4.2, 300 uM o-phenylenediamine, pH 4.2
[5] = DESN variant, decarboxylase activity, Mn enzyme (1.5 Mn/monomer), 100 mM citrate pH 4.2, 300 uM o-phenylenediamine, pH 4.2
[6] = DESN variant, oxidase activity, Mn enzyme (1.5 Mn/monomer), 50 mM succinate pH 4.0, O2 co-substrate, pH 4.0
[7] = DENS variant, decarboxylase activity, Mn enzyme (1.6 Mn/monomer), 100 mM citrate pH 4.2, 300 uM o-phenylenediamine, pH 4.2
[8] = DDSN variant, decarboxylase activity, Mn enzyme (1.5 Mn/monomer), 100 mM citrate pH 4.2, 300 uM o-phenylenediamine, pH 4.2
[9] = ΔE162 variant, decarboxylase activity, Mn enzyme (1.3 Mn/monomer), 100 mM citrate pH 4.2, 300 uM o-phenylenediamine, pH 4.2
[10] = ΔE162 variant, oxidase activity, Mn enzyme (1.3 Mn/monomer), 50 mM succinate pH 4.0, O2 co-substrate, pH 4.0

**Q.** How did the “X-ray crystal structure, 2.6 Å” value [1] turn out when O=C(O)C(=O)O [oxalate] was run?
**A.** The value was “we observed an oxalate molecule bound within the N-terminal domain”.

B1: oxalate decarboxylase (OxDC) (Bacillus subtilis subsp. subtilis str. 168) (protein)
chain: MKKQNDIPQPIRGDKGATVKIPRNIERDRQNPDMLVPPETDHGTVSNMKFSFSDTHNRLEKGGYAREVTVRELPISENLASVNMRLKPGAIRELHWHKEAEWAYMIYGSARVTIVDEKGRSFIDDVGEGDLWYFPSGLPHSIQALEEGAEFLLVFDDGSFSENSTFQLTDWLAHTPKEVIAANFGVTKEEISNLPGKEKYIFENQLPGSLKDDIVEGPNGEVPYPFTYRLLEQEPIESEGGKVYIADSTNFKVSKTIASALVTVEPGAMRELHWHPNTHEWQYYISGKARMTVFASDGHARTFNYQAGDVGYVPFAMGHYVENIGDEPLVFLEIFKDDHYADVSLNQWLAMLPETFVQAHLDLGKDFTDVLSKEKHPVVKKKCSK
**Q.** What does the source list for B1?
**A.** Km (purified protein; [2]): 8 ± 1 mM; kcat (purified protein; [2]): 60 s⁻¹; kcat/Km (purified protein; [2]): 5700 M⁻¹ s⁻¹; Km (purified protein; [3]): 5.0 ± 0.2 mM; kcat (purified protein; [3]): 0.13 s⁻¹; kcat/Km (purified protein; [3]): 19 M⁻¹ s⁻¹

B2: oxalate decarboxylase (OxDC) (Bacillus subtilis subsp. subtilis str. 168; E162D/S161D) (protein)
chain: MKKQNDIPQPIRGDKGATVKIPRNIERDRQNPDMLVPPETDHGTVSNMKFSFSDTHNRLEKGGYAREVTVRELPISENLASVNMRLKPGAIRELHWHKEAEWAYMIYGSARVTIVDEKGRSFIDDVGEGDLWYFPSGLPHSIQALEEGAEFLLVFDDGSFDDNSTFQLTDWLAHTPKEVIAANFGVTKEEISNLPGKEKYIFENQLPGSLKDDIVEGPNGEVPYPFTYRLLEQEPIESEGGKVYIADSTNFKVSKTIASALVTVEPGAMRELHWHPNTHEWQYYISGKARMTVFASDGHARTFNYQAGDVGYVPFAMGHYVENIGDEPLVFLEIFKDDHYADVSLNQWLAMLPETFVQAHLDLGKDFTDVLSKEKHPVVKKKCSK
**Q.** Which Km (purified protein; [4]) does the source give for B2 here?
**A.** The Km was 10 ± 2 mM.

**Q.** And the kcat (purified protein; [4])?
**A.** The kcat was 45 s⁻¹.

**Q.** What about the kcat/Km (purified protein; [4]) of the same molecule?
**A.** The kcat/Km was 2900 M⁻¹ s⁻¹.

B3: oxalate decarboxylase (OxDC) (Bacillus subtilis subsp. subtilis str. 168; N163S/S161D/S164N) (protein)
chain: MKKQNDIPQPIRGDKGATVKIPRNIERDRQNPDMLVPPETDHGTVSNMKFSFSDTHNRLEKGGYAREVTVRELPISENLASVNMRLKPGAIRELHWHKEAEWAYMIYGSARVTIVDEKGRSFIDDVGEGDLWYFPSGLPHSIQALEEGAEFLLVFDDGSFDESNTFQLTDWLAHTPKEVIAANFGVTKEEISNLPGKEKYIFENQLPGSLKDDIVEGPNGEVPYPFTYRLLEQEPIESEGGKVYIADSTNFKVSKTIASALVTVEPGAMRELHWHPNTHEWQYYISGKARMTVFASDGHARTFNYQAGDVGYVPFAMGHYVENIGDEPLVFLEIFKDDHYADVSLNQWLAMLPETFVQAHLDLGKDFTDVLSKEKHPVVKKKCSK
**Q.** For B3, which Km (purified protein; [5]) is on record?
**A.** Its Km is 6 ± 1 mM.

**Q.** And the kcat (purified protein; [5])?
**A.** The kcat was 40 s⁻¹.

**Q.** And the kcat/Km (purified protein; [5])?
**A.** The kcat/Km was 4400 M⁻¹ s⁻¹.

**Q.** And the Km (purified protein; [6])?
**A.** The Km was 11 ± 2 mM.

**Q.** And the kcat (purified protein; [6])?
**A.** Its kcat is 0.1 s⁻¹.

**Q.** And the kcat/Km (purified protein; [6])?
**A.** The kcat/Km was 11 M⁻¹ s⁻¹.

B4: oxalate decarboxylase (OxDC) (Bacillus subtilis subsp. subtilis str. 168; S161D) (protein)
chain: MKKQNDIPQPIRGDKGATVKIPRNIERDRQNPDMLVPPETDHGTVSNMKFSFSDTHNRLEKGGYAREVTVRELPISENLASVNMRLKPGAIRELHWHKEAEWAYMIYGSARVTIVDEKGRSFIDDVGEGDLWYFPSGLPHSIQALEEGAEFLLVFDDGSFDENSTFQLTDWLAHTPKEVIAANFGVTKEEISNLPGKEKYIFENQLPGSLKDDIVEGPNGEVPYPFTYRLLEQEPIESEGGKVYIADSTNFKVSKTIASALVTVEPGAMRELHWHPNTHEWQYYISGKARMTVFASDGHARTFNYQAGDVGYVPFAMGHYVENIGDEPLVFLEIFKDDHYADVSLNQWLAMLPETFVQAHLDLGKDFTDVLSKEKHPVVKKKCSK
**Q.** B4 was tested. Which Km (purified protein; [7]) did it give?
**A.** The Km was 10 ± 1 mM.

**Q.** What about the kcat (purified protein; [7]) of the same molecule?
**A.** Its kcat is 63 s⁻¹.

**Q.** What about the kcat/Km (purified protein; [7]) of the same molecule?
**A.** Its kcat/Km is 3900 M⁻¹ s⁻¹.

B5: oxalate decarboxylase (OxDC) (Bacillus subtilis subsp. subtilis str. 168; E162D/N163S/S161D/S164N) (protein)
chain: MKKQNDIPQPIRGDKGATVKIPRNIERDRQNPDMLVPPETDHGTVSNMKFSFSDTHNRLEKGGYAREVTVRELPISENLASVNMRLKPGAIRELHWHKEAEWAYMIYGSARVTIVDEKGRSFIDDVGEGDLWYFPSGLPHSIQALEEGAEFLLVFDDGSFDDSNTFQLTDWLAHTPKEVIAANFGVTKEEISNLPGKEKYIFENQLPGSLKDDIVEGPNGEVPYPFTYRLLEQEPIESEGGKVYIADSTNFKVSKTIASALVTVEPGAMRELHWHPNTHEWQYYISGKARMTVFASDGHARTFNYQAGDVGYVPFAMGHYVENIGDEPLVFLEIFKDDHYADVSLNQWLAMLPETFVQAHLDLGKDFTDVLSKEKHPVVKKKCSK
**Q.** Which results are given for B5?
**A.** Km (purified protein; [8]): 3 ± 1 mM; kcat (purified protein; [8]): 9 s⁻¹; kcat/Km (purified protein; [8]): 2400 M⁻¹ s⁻¹

B6: oxalate decarboxylase (OxDC) (Bacillus subtilis subsp. subtilis str. 168; DEL162-162) (protein)
chain: MKKQNDIPQPIRGDKGATVKIPRNIERDRQNPDMLVPPETDHGTVSNMKFSFSDTHNRLEKGGYAREVTVRELPISENLASVNMRLKPGAIRELHWHKEAEWAYMIYGSARVTIVDEKGRSFIDDVGEGDLWYFPSGLPHSIQALEEGAEFLLVFDDGSFSNSTFQLTDWLAHTPKEVIAANFGVTKEEISNLPGKEKYIFENQLPGSLKDDIVEGPNGEVPYPFTYRLLEQEPIESEGGKVYIADSTNFKVSKTIASALVTVEPGAMRELHWHPNTHEWQYYISGKARMTVFASDGHARTFNYQAGDVGYVPFAMGHYVENIGDEPLVFLEIFKDDHYADVSLNQWLAMLPETFVQAHLDLGKDFTDVLSKEKHPVVKKKCSK
**Q.** Which results are given for B6?
**A.** Km (purified protein; [9]): 1.6 ± 0.7 mM; kcat (purified protein; [9]): 0.01 s⁻¹; kcat/Km (purified protein; [9]): 5 M⁻¹ s⁻¹; Km (purified protein; [10]): 3 ± 1 mM; kcat (purified protein; [10]): 0.05 s⁻¹; kcat/Km (purified protein; [10]): 14 M⁻¹ s⁻¹
